Earlier results on 1 substance are cited in article PMC9594772.

This series deals with Dll4 ECD (Rattus norvegicus) (UniProt D3ZHH1).
Sequence of Dll4 ECD (Rattus norvegicus) (D3ZHH1 28-530): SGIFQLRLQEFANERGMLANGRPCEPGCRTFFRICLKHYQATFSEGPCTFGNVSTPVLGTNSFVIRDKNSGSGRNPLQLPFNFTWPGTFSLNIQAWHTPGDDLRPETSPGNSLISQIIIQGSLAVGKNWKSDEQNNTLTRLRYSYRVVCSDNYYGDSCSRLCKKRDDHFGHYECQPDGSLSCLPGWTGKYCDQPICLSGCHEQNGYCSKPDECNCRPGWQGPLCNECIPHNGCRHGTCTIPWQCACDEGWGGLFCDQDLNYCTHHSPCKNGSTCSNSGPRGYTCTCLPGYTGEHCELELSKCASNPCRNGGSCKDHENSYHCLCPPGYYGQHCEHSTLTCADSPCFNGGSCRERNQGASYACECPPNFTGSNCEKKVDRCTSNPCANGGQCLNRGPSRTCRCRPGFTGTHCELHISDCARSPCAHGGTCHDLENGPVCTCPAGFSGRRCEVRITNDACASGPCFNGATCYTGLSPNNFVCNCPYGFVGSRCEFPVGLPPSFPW

In the case of Notch1 (from UniProt P46531), the dissociation constant Kd (in general, the free concentration of one partner at which half of the binding sites on the other are occupied at equilibrium, for simple one-to-one binding) is 12.7 µM.
